Measured values taken from patent publication US20260152573A1 (ARGENX, published 2026).

Legend:
human serum albumin [1] = target: T1, human serum albumin (human, UniProt P02768 25-609); test: SPR Biacore, HSA coated, steady state, pH 5.5
T1 construct: Immobilised on SPR chips; also added in solution in the FcRn occupancy assays; also called HSA; humanSA

human serum albumin [2] = target: T1, human serum albumin; test: SPR Biacore, HSA coated, steady state, pH 7.4
human serum albumin [3] = target: T1, human serum albumin; test: SPR Biacore, HSA coated, kinetic fit, pH 7.4
human serum albumin [4] = target: T1, human serum albumin; test: SPR Biacore, HSA coated, kinetic fit, pH 5.5
human serum albumin [5] = target: T1, human serum albumin; test: SPR Biacore 8K+ SCK, albumin on chip, pH 7.4
human serum albumin [6] = target: T1, human serum albumin; test: SPR Biacore 3000, HSA on chip, ratio of R0 at pH 5.5 and pH 7.4
human serum albumin [7] = target: T1, human serum albumin; test: SPR Biacore 3000, HSA on chip, pH 5.5
human serum albumin [8] = target: T1, human serum albumin; test: SPR Biacore 3000, HSA on chip, pH 7.4

Row | Binder | Kd (human serum albumin [1]) [nM] | Kd (human serum albumin [2]) [nM] | Kd (human serum albumin [3]) [nM] | Kd (human serum albumin [4]) [nM] | fold decrease in affinity compared to the parental Alb23 VHH fragment (human serum albumin [5]) [fold] | R0 5.5/7.4 (human serum albumin [6]) | R0 pH 5.5 (human serum albumin [7]) [RU] | koff (human serum albumin [7]) [s⁻¹] | R0 pH 7.4 (human serum albumin [8]) [RU] | koff (human serum albumin [8]) [s⁻¹]
1 | OA-Fc-ABDEG-Alb23-G33A/G53A (Fc fusion) DKTHTCPPCPAPELLGGPSVFLFPPKPKDTLYITREPEVTCVVVDVSHEDPEVKFNWYVDGVEVHNAKTKPREEQYNSTYRVVSVLTVLHQDWLNGKEYKCKVSNKALPAPIEKTISKAKGQPREPQVYTLPPSRDELTKNQVSLWCLVKGFYPSDIAVEWESNGQPENNYKTTPPVLDSDGSFFLYSKLTVDKSRWQQGNVFSCSVMHEALKFHYTQKSLSLSPGGGGGSGGGGSGGGGSGGGGSEVQLLESGGGLVQPGGSLRLSCAASGFTFRSFAMSWVRQAPGKGPEWVSSISASGSDTLYADSVKGRFTISRDNSKNTLYLQMNSLRPEDTAVYYCTIGGSLSRSSQGTLVTVSS Fc: DKTHTCPPCPAPELLGGPSVFLFPPKPKDTLYITREPEVTCVVVDVSHEDPEVKFNWYVDGVEVHNAKTKPREEQYNSTYRVVSVLTVLHQDWLNGKEYKCKVSNKALPAPIEKTISKAKGQPREPQVYTLPPSRDELTKNQVSLSCAVKGFYPSDIAVEWESNGQPENNYKTTPPVLDSDGSFFLVSKLTVDKSRWQQGNVFSCSVMHEALKFHYTQKSLSLSPG | 135 | 767 | 499 | 90.2 | – | – | – | – | – | –
2 | OA-Fc-ABDEG-Alb23-S101T (Fc fusion) DKTHTCPPCPAPELLGGPSVFLFPPKPKDTLYITREPEVTCVVVDVSHEDPEVKFNWYVDGVEVHNAKTKPREEQYNSTYRVVSVLTVLHQDWLNGKEYKCKVSNKALPAPIEKTISKAKGQPREPQVYTLPPSRDELTKNQVSLWCLVKGFYPSDIAVEWESNGQPENNYKTTPPVLDSDGSFFLYSKLTVDKSRWQQGNVFSCSVMHEALKFHYTQKSLSLSPGGGGGSGGGGSGGGGSGGGGSEVQLLESGGGLVQPGGSLRLSCAASGFTFRSFGMSWVRQAPGKGPEWVSSISGSGSDTLYADSVKGRFTISRDNSKNTLYLQMNSLRPEDTAVYYCTIGGTLSRSSQGTLVTVSS Fc: DKTHTCPPCPAPELLGGPSVFLFPPKPKDTLYITREPEVTCVVVDVSHEDPEVKFNWYVDGVEVHNAKTKPREEQYNSTYRVVSVLTVLHQDWLNGKEYKCKVSNKALPAPIEKTISKAKGQPREPQVYTLPPSRDELTKNQVSLSCAVKGFYPSDIAVEWESNGQPENNYKTTPPVLDSDGSFFLVSKLTVDKSRWQQGNVFSCSVMHEALKFHYTQKSLSLSPG | 70.8 | 315 | 206 | 54.9 | – | – | – | – | – | –
3 | OA-Fc-ABDEG-Alb23-S52A/G53A (Fc fusion) DKTHTCPPCPAPELLGGPSVFLFPPKPKDTLYITREPEVTCVVVDVSHEDPEVKFNWYVDGVEVHNAKTKPREEQYNSTYRVVSVLTVLHQDWLNGKEYKCKVSNKALPAPIEKTISKAKGQPREPQVYTLPPSRDELTKNQVSLWCLVKGFYPSDIAVEWESNGQPENNYKTTPPVLDSDGSFFLYSKLTVDKSRWQQGNVFSCSVMHEALKFHYTQKSLSLSPGGGGGSGGGGSGGGGSGGGGSEVQLLESGGGLVQPGGSLRLSCAASGFTFRSFGMSWVRQAPGKGPEWVSSIAASGSDTLYADSVKGRFTISRDNSKNTLYLQMNSLRPEDTAVYYCTIGGSLSRSSQGTLVTVSS Fc: DKTHTCPPCPAPELLGGPSVFLFPPKPKDTLYITREPEVTCVVVDVSHEDPEVKFNWYVDGVEVHNAKTKPREEQYNSTYRVVSVLTVLHQDWLNGKEYKCKVSNKALPAPIEKTISKAKGQPREPQVYTLPPSRDELTKNQVSLSCAVKGFYPSDIAVEWESNGQPENNYKTTPPVLDSDGSFFLVSKLTVDKSRWQQGNVFSCSVMHEALKFHYTQKSLSLSPG | 65.9 | 298 | 204 | 47.7 | – | – | – | – | – | –
4 | OA-Fc-ABDEG-Alb23-S52A/S101A (Fc fusion) DKTHTCPPCPAPELLGGPSVFLFPPKPKDTLYITREPEVTCVVVDVSHEDPEVKFNWYVDGVEVHNAKTKPREEQYNSTYRVVSVLTVLHQDWLNGKEYKCKVSNKALPAPIEKTISKAKGQPREPQVYTLPPSRDELTKNQVSLWCLVKGFYPSDIAVEWESNGQPENNYKTTPPVLDSDGSFFLYSKLTVDKSRWQQGNVFSCSVMHEALKFHYTQKSLSLSPGGGGGSGGGGSGGGGSGGGGSEVQLLESGGGLVQPGGSLRLSCAASGFTFRSFGMSWVRQAPGKGPEWVSSIAGSGSDTLYADSVKGRFTISRDNSKNTLYLQMNSLRPEDTAVYYCTIGGALSRSSQGTLVTVSS Fc: DKTHTCPPCPAPELLGGPSVFLFPPKPKDTLYITREPEVTCVVVDVSHEDPEVKFNWYVDGVEVHNAKTKPREEQYNSTYRVVSVLTVLHQDWLNGKEYKCKVSNKALPAPIEKTISKAKGQPREPQVYTLPPSRDELTKNQVSLSCAVKGFYPSDIAVEWESNGQPENNYKTTPPVLDSDGSFFLVSKLTVDKSRWQQGNVFSCSVMHEALKFHYTQKSLSLSPG | 124 | 579 | 501 | 95.6 | – | – | – | – | – | –
5 | OA-Fc-ABDEG-Alb23-G53A (Fc fusion) DKTHTCPPCPAPELLGGPSVFLFPPKPKDTLYITREPEVTCVVVDVSHEDPEVKFNWYVDGVEVHNAKTKPREEQYNSTYRVVSVLTVLHQDWLNGKEYKCKVSNKALPAPIEKTISKAKGQPREPQVYTLPPSRDELTKNQVSLWCLVKGFYPSDIAVEWESNGQPENNYKTTPPVLDSDGSFFLYSKLTVDKSRWQQGNVFSCSVMHEALKFHYTQKSLSLSPGGGGGSGGGGSGGGGSGGGGSEVQLLESGGGLVQPGGSLRLSCAASGFTFRSFGMSWVRQAPGKGPEWVSSISASGSDTLYADSVKGRFTISRDNSKNTLYLQMNSLRPEDTAVYYCTIGGSLSRSSQGTLVTVSS Fc: DKTHTCPPCPAPELLGGPSVFLFPPKPKDTLYITREPEVTCVVVDVSHEDPEVKFNWYVDGVEVHNAKTKPREEQYNSTYRVVSVLTVLHQDWLNGKEYKCKVSNKALPAPIEKTISKAKGQPREPQVYTLPPSRDELTKNQVSLSCAVKGFYPSDIAVEWESNGQPENNYKTTPPVLDSDGSFFLVSKLTVDKSRWQQGNVFSCSVMHEALKFHYTQKSLSLSPG | 36.7 | 158 | 78.8 | 20.6 | – | – | – | – | – | –
6 | OA-Fc-ABDEG-Alb23-S52A (Fc fusion) DKTHTCPPCPAPELLGGPSVFLFPPKPKDTLYITREPEVTCVVVDVSHEDPEVKFNWYVDGVEVHNAKTKPREEQYNSTYRVVSVLTVLHQDWLNGKEYKCKVSNKALPAPIEKTISKAKGQPREPQVYTLPPSRDELTKNQVSLWCLVKGFYPSDIAVEWESNGQPENNYKTTPPVLDSDGSFFLYSKLTVDKSRWQQGNVFSCSVMHEALKFHYTQKSLSLSPGGGGGSGGGGSGGGGSGGGGSEVQLLESGGGLVQPGGSLRLSCAASGFTFRSFGMSWVRQAPGKGPEWVSSIAGSGSDTLYADSVKGRFTISRDNSKNTLYLQMNSLRPEDTAVYYCTIGGSLSRSSQGTLVTVSS Fc: DKTHTCPPCPAPELLGGPSVFLFPPKPKDTLYITREPEVTCVVVDVSHEDPEVKFNWYVDGVEVHNAKTKPREEQYNSTYRVVSVLTVLHQDWLNGKEYKCKVSNKALPAPIEKTISKAKGQPREPQVYTLPPSRDELTKNQVSLSCAVKGFYPSDIAVEWESNGQPENNYKTTPPVLDSDGSFFLVSKLTVDKSRWQQGNVFSCSVMHEALKFHYTQKSLSLSPG | 49.5 | 27.3 | 167 | 34.2 | – | – | – | – | – | –
7 | OA-Fc-ABDEG-Alb23-S101A (Fc fusion) DKTHTCPPCPAPELLGGPSVFLFPPKPKDTLYITREPEVTCVVVDVSHEDPEVKFNWYVDGVEVHNAKTKPREEQYNSTYRVVSVLTVLHQDWLNGKEYKCKVSNKALPAPIEKTISKAKGQPREPQVYTLPPSRDELTKNQVSLWCLVKGFYPSDIAVEWESNGQPENNYKTTPPVLDSDGSFFLYSKLTVDKSRWQQGNVFSCSVMHEALKFHYTQKSLSLSPGGGGGSGGGGSGGGGSGGGGSEVQLLESGGGLVQPGGSLRLSCAASGFTFRSFGMSWVRQAPGKGPEWVSSISGSGSDTLYADSVKGRFTISRDNSKNTLYLQMNSLRPEDTAVYYCTIGGALSRSSQGTLVTVSS Fc: DKTHTCPPCPAPELLGGPSVFLFPPKPKDTLYITREPEVTCVVVDVSHEDPEVKFNWYVDGVEVHNAKTKPREEQYNSTYRVVSVLTVLHQDWLNGKEYKCKVSNKALPAPIEKTISKAKGQPREPQVYTLPPSRDELTKNQVSLSCAVKGFYPSDIAVEWESNGQPENNYKTTPPVLDSDGSFFLVSKLTVDKSRWQQGNVFSCSVMHEALKFHYTQKSLSLSPG | 67.5 | 353 | 255 | 54.3 | – | – | – | – | – | –
8 | Alb23 F32A (VHH, VHH alone) VHH: EVQLLESGGGLVQPGGSLRLSCAASGFTFRSAGMSWVRQAPGKGPEWVSSISGSGSDTLYADSVKGRFTISRDNSKNTLYLQMNSLRPEDTAVYYCTIGGSLSRSSQGTLVTVSS | – | – | – | – | ≥ 10 | – | – | – | – | –
9 | TA-Fc-ABDEG-2H11 (Fc fusion, also called 2H11 parental (two-armed Fc-ABDEG-20GS-Cterm fusion); not shown: Fc-ABDEG domain) GGGGSGGGGSGGGGSGGGGSELQVVESGGGLVQAGGSLRLSCAASGRTFRSNTMGWFRQAPGKEREFVAAITWSGGTTYYADSVKGRFAISGDNAKNTVYLQMNSLKPEDTAVYYCAAEGPKWEPWNGIYHPADFGSWGQGTQVTVSS | – | – | – | – | – | 3 | 351 | 0.00016 | 115 | 0.00072
10 | 2H11-v3 fused at the C-terminus of Fc-ABDEG (two-armed) (Fc fusion, not shown: Fc-ABDEG domain) GGGGSGGGGSGGGGSGGGGSELQVVESGGGLVQAGGSLRLSCAASGRTFRSNTMGWFRQAPGKEREFVAAITWSGGTTYYADSVKGRFAISGDNAKNTVYLQMNSLKPEDTAVYYCAAEGAKWEPWNGIYHPADFGSWGQGTQVTVSS | – | – | – | – | – | 19.9 | 164 | 0.000135 | 8.24 | 0.0029
11 | 2H11-v12 fused at the C-terminus of Fc-ABDEG (two-armed) (Fc fusion, not shown: Fc-ABDEG domain) GGGGSGGGGSGGGGSGGGGSELQVVESGGGLVQAGGSLRLSCAASGRTFRSNTMGWFRQAPGKEREFVAAITWSGGTTYYADSVKGRFAISGDNAKNTVYLQMNSLKPEDTAVYYCAAEGPKWEPWNGIAHPADFGSWGQGTQVTVSS | – | – | – | – | – | 14.9 | 93.9 | 9.72e-05 | 6.32 | 0.0012
